Results on two molecules are retold here after doi:10.1101/2020.01.13.903898 (bioRxiv, 2020).

Data set [1] deals with zebrafish PATZ1 BTB domain (residues 1-135) (zebrafish (Danio rerio)). Nature of the data set: SEC.
Data set [2] concerns the molecule itself. Nature of the data set: SEC.

“zebrafish PATZ1 BTB domain (residues 1-135) (domain or fragment)” displayed a stoichiometry N in data set [1] of 2.

B1: mouse PATZ1 BTB domain (residues 12-166) (domain or fragment)
chain: SGCYTYQVSRHSTEMLHNLNQQRKNGGRFCDVLLRVGDESFPAHRAVLAACSEYFESVFSAQLGDGGAADGGPADVGGAAAAPGGGAGGSRELEMHTISSKVFGDILDFAYTSRIVVRLESFPELMTAAKFLLMRSVIEICQEVIKQSNVQILVP
In the case of B1, in data set [2], the “stoichiometry N” value was found to be 2.
